Assay results from patent US20120219567A1 (Biogen, published 2012).
Changes are numbered by the printed parent chain.

T1: human NgR mutant 163 (mutated to alanine) (human, UniProt Q9BZR6 27-445)
T1 sequence: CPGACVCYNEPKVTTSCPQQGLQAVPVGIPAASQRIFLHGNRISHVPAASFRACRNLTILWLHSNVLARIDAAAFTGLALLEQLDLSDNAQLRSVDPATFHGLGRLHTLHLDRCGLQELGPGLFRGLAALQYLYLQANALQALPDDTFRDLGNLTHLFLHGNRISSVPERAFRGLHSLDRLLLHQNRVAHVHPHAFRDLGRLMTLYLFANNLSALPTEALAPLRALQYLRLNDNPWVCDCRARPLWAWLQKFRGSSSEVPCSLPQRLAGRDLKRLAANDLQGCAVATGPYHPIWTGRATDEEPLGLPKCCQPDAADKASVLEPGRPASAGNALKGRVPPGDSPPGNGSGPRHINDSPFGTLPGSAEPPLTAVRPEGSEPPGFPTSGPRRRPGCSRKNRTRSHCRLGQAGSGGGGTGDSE

B1: human NgR mutant 67, 68, 71 (mutated to alanine) (receptor)
chain: T1 sequence with N41A, R42A, H45A, A137D
B2: human NgR mutant 67, 68, 71, 89, 90, 92 (mutated to alanine) (receptor)
chain: T1 sequence with N41A, R42A, H45A, H63A, S64A, V66A, A137D
B3: human NgR mutant 87, 89, 133, 136 (mutated to alanine) (receptor)
chain: T1 sequence with W61A, H63A, H107A, H110A, A137D
B4: AP-Nogo-66 (ligand, UniProt Q9NQC3 1055-1120, looked up)
chain: RIYKGVIQAIQKSDEGHPFRAYLESEVAISEELVQKYSNSALGHVNCTIKELRRLFLVDDLVDSLK
notes: domain: Nogo-66; also called AP-Ng-66; Nogo-66 ligand; not shown: alkaline phosphatase (AP) moiety
B5: human NgR mutant 82, 179 (mutated to alanine) (receptor)
chain: T1 sequence with N56A, A137D, N153A
B6: human NgR mutant 133, 136 (mutated to alanine) (receptor)
chain: T1 sequence with H107A, H110A, A137D

Experiments:
AP-Nogo-66 = molecular target: B4; assay: AP-ligand binding to transfected COS-7 cells
Method: (§1) In order to probe the NgR domains that interact with Aβ and Nogo-66, a strategy based on the crystal structure of NgR was employed. A number of human NgR surface-accessible residues were mutated to Ala either individually or as groups of adjacent residues (Table 3), and resultant ligand binding characteristics were assessed. The ligand concentrations were AP, 30 nM, AP-Nogo-66, 5 nM, AP-Aβ(1-28), 50 nM. NgR mutagenesis has been previously described. Hu et al., J Neurosci 25:5298-5304 (2005); Fournier et al., J Neurosci 23:1416-1423 (2003). The expression of each mutant NgR protein was verified by immunohistochemical detection at the surface of cells transfected with expression vector (FIG. 2a). Bound AP was stained and measured using NIH image software. Mutants of human NgR were detected on the surface of transfected COS-7 immunofluorescently. For each of the mutants with altered binding characteristics, expression of immunoreactive NgR protein with electrophoretic mobility similar to wild type was also confirmed by immunoblot (FIG. 2c). Whole COS-7 cell lysates expressing NgR mutants were subjected to SDS-PAGE and blotted with anti-NgR antibodies. The mobility of each mutant was indistinguishable from wild type NgR, except for the mutations in N-linked glycosylation sites (N82 and N179). The binding of both AP-Aβ(1-28) and AP-Nogo-66 ligands to cells expressing this collection of NgR mutant proteins was assessed at concentrations equal to the predetermined Kd's of the ligands (FIG. 2b, d).

[1] = molecular target: T1, human NgR mutant 163 (mutated to …); assay: AP-ligand binding to transfected COS-7 cells
Method: as §1

| Binder | binding result (AP-Nogo-66) | binding result [1] |
| --- | --- | --- |
| B1 | no binding (tested: 5 nM) |  |
| B2 | no binding (tested: 5 nM) |  |
| B3 | no binding (tested: 5 nM) |  |
| B4 |  | no binding (tested: 5 nM) |
| B5 | no binding (tested: 5 nM) |  |
| B6 | no binding (tested: 5 nM) |  |
